# Source: a protein production outcome set (Wang et al. 2014)
# Assay: label from the status in PepcDB records
# 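Note: failed if final PepcDB status was selected cloned or expressed and not failed if soluble or beyond.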
row,Sequence,protein production
1,MLAQIEQEHYSKLHEILRLCRANLKNYDESLIQRAFFMCYRAHEGEKRASGEPFFYHPVEVAKLLVTELPLDGVSVAAALLHDVIEDSGYTYEDISAELGAEVADIVEGLTKISEIMVNRETTEAEGFRKMLLSMVKDIRVILIKFCDRLHNMRTLDSLPEHRRLRMALETRDIYAPLAHRFGLGKMKVDLENLALKYIDPEMYDYLLKKVRLSRNERVAYLNKMIAPIKDDLEKQGFTVELQGRAKHLYSIYNKMRMKNKKFDDIHDLYGIRVIIDTEKISDCFAVYGYITQQFPPIPQHFKDYISIPKHNGYQSLHSAIIGPKGHVVELQIRTRRMHEFAELGVAAHWRYKEKISKDDAALDSFLKWARELIKDADSATAFMEGFKLNLYHDEIYVFTPKGDMKVLPAGATPIDFAYAIHSEIGNGCIGAKVNGKIVRLNTELRSGDRVEVITSKSQRPKADWLKIVVTHRAKLKIRAAINEERRQEIEKGRSIWEKMLSGSKKLFTENDAIRAIRQHGIKTPADLFNALAKQQISSEEVLERISHPHRPAETHESTVQARAPHKDFAEIAREVQERLGYQKDEVTIAGLNNISYSYAKCCNPVPGDDIIGFVTTGGTVKIHRKNCVNVTNENSVKSERIVSVAWNRKVDTDFLAGIRIVGEDKIGMTNQITGVISKFDTNIRTIVLNAKDGIFTCNLMIFVKNTDKLTTLMDKLRKVQGVFTVERLSN,failed
2,MLAQQIVGIFLMTTGTLFVFVAGLGVLRLPDVYMRLHASTKAGTLGVALNAAGLVVFHPDLGIFTRAFALVLFLLLTAPVAAHMIGRASYFAREEMGVSIWDGTVVDRMLDHRGEALFSTGAPEDGADASGSPS,failed
3,MLARRIVAKHVTKTTALAMLGTTIVLVILQVLFTYLGELSNLKADYSAWQAFLYVLWGAPRYLYEILPISALIGAILGLGTLASNSELIVMRSVGISLWRIVGWVIRSALVLVLLSFALSEWVVPYTNERANSVKSHQSVAALGEVRGYWSREGQRFIYVDYANSQGQLKRIQVVDFDDNYRLKSVTNAEQGQFVKDGQWLLNHSQQMAIQGQGDAVLANAAKQPFSLALQPKYVHMVTIDPEDLSFSQLVSFMNYMREYSQVPKTYQLAFWKKVASPFALITLVLVACSFIFGPLRQQSMGFRLVIALFIGLGFYYLQDFLGYASLVYNPSPAWFVLGPIVLMFVAGSYLLYRAR,failed
4,MLASIISILRVFVLLFNTPLFIFAFLPVGFLGYFILQAYAKNPLFPKLWLVLASLFFYAFWNVKYLPLLVGSIVFNYFVALKIHQTQPNAYKRLWLILGLIANVSLLGFFKYTDFFLTNFNLIWKSHFETLHLILPLAISFFTLQQIAYLMDTYKQNQIMQPKMRERVSENAPILLNPPTSFFSLSHFLDYALFVSFFPQLIAGPIVHHSEMMPQFKDKNNQYLNYRNIALGLFIFSIGLFKKVVIADNTAHFADFGFDKATSLSFIQAWMTSLSYSFQLYFDFSGYCDMAIGIGLFFNIKLPINFNSPYKALNIQDFWRRWHITLSRFLKEYLYIPLGGNRVKELIVYRNLILVFLIGGFWHGAGWTFIIWGLLHGIALSVHRAYSHATRKFHFTMPKILAWLITFNFINLAWVFFRAKNLESALKVLKGMVGLNGVSLCHLSKEASEFLNRVNDNMIMHTIMYASPTFKMCVLMIIISFCLKNSSHLYQSNQMDWIKTTSACLLLSIGFLFIFASSQSVFLYFNF,failed
5,MLASVRVNQLQRLLLSARRLSSSPIIPPSRLLHQRLFSTSDTDASAASFSSSHPKIQTLEGKASNKSRSTSSTTSLNEDELAKFSAIADTWWHSEGPFKPLHQMNPTRLAFIRSTLCRHFSKDPSSAKPFEGLKFIDIGCGGGLLSEPLARMGATVTGVDAVDKNVKIARLHADMDPVTSTIEYLCTTAEKLADEGRKFDAVLSLEVIEHVANPAEFCKSLSALTIPNGATVLSTINRTMRAYASTIVGAEYILRWLPKGTHQWSSFVTPEEMSMILQRASVDVKEIAGFVYNPITGRWLLSDDISVNYIAYGTKRKDLGDI,failed
6,MLATPFWYNAALKVLKPVYRWRIKKRAENEMRYQQECRERFGPFQQPQNRHALWFHAVSVGETNAAQPLIEYYLKLGHPVLVTNTTKTGQARAKSLFLKSPYLELFQAVYLPVDQIFLLKQFFELYQPKLLALVETELWPNLIDQAQHYGVPTFLINARLSEKSAQGYARVSALSNAMLSRLTGLLAQDQSTQQRFIGLGLAREKAQVVGNIKFDIDVPLEHHHHHH,failed
7,MLDFNIEGLIPKNMEKRGELVLNEYLKEIEDVFNHRKIPENGIDDEKIKLFLKFLSMMDTDKDPKSVRIGEREARTYSKIHEELSSGFCHGIGRSGNLVDPQPKASGASIMYALTNKILESFFKQLGLNVHAIATPISTGMSISLCLSAARKKYGSNVVIYPYASHKSPIKAVSFVGMNMRLVETVLDGDRVYVPVEDIENAIKKEIELGNRPCVLSTLTFFPPRNSDDIVEIAKICENYDIPHIINGAYAIQNNYYLEKLKKAFKYRVDAVVSSSDKNLLTPIGGGLVYSTDAEFIKEISLSYPGRASATPVVNTLVSLLSMGSKNYLELVKNQKNSKKLLDELLNDLSKKTGGKFLDVESPIASCISVNSDPVEIAAKLYNLRVTGPRGIKKTDHFGNCYLGTYTHDYIVMNAAIGVRTEDIVNSVSKLEKILL,failed
8,MLDKVIYSLLRTQDPGLAQELYFRLQAKEQSFAEVAQKYSQGPESQTGGLVGPVEQSSLHPAMVQLLSSCQPGQISPPTRITEWYVIVRVEKFIPAQLEHHHHHH,not failed
9,MLDNKDIATPSRTRALLDKYGFNFKKSLGQNFLIDVNIINNIIDASDIDAQTGVIEIGPGMGSLTEQLARHAKRVLAFEIDQRLIPVLNDTLSPYDNVTVINEDILKANIKEAVENHLQDCEKIMVVANLPYYITTPILLNLMQQDIPIDGYVVMMQKEVGERLNAEVGSKAYGSLSIVVQYYTETSKVLTVPKSVFMPPPNVDSIVVKLMQRTEPLVTVDNEEAFFKLAKAAFAQRRKTINNNYQNYFKDGKQHKEVILQWLEQAGIDPRRRGETLSIQDFAKLYEEKKKFPQLEN,failed
10,MLDPILLLGLVVAVLAMSLVAQALSSYFRIPFIIFLLIEGIIAGPEVLNLLNPALYVDGLSTIVAISVSVIVFDGGLHIDLKHIRMVQESVLKLTTIGVFVTFLGTTVLTSLLIEIPLELAALFGALVTATGPTVITPIVRNIQISHKLGKILELEGVLNDAASVILAAMVFEWVAAELSGTDAVVFILYRLGIGIALGSLSGFALRWFFTRGKAISNRTARLVSLTAVFSCFVFSEYLGNESGILAVAIFGIILGTSDFPYKDTIKEFKSDIVIVMLSLIFILLAAMIKFEYILRIGASGVALVLLLIFVIRPFAVFVSMWNSQIGTNEKLFISFVGPRGVVPTAVATYFAIKLDSMGIPGGQTLVGLVFLTVIITVFMSGSLSKKVAEVLEVIPMEILIIGGGKVGRILAERFDKRGENVVVVDISEDNCKKCMELGIRTVQGDAGDVNVLKKAGIENAKYVVATTNQDNTNLLFCQLAKASFGFRGDQLVARVNEIENLQAFWNLGIRSMSPAMTTAVVLDNMIGRPHLFSMCEVGGEGEMMEVKVTNPRVIGKAIKDIQFPEKSLLVMVQRGSDSIIAHGNLVLEYEDIVTVIGEGDAAKQTAAILHK,failed
11,MLDTLVFGCVAFPLLAALAVYFVRGEAARRLIVPGAVAVTALSALGMAGSGPIMFAPKSFLGIGLDGLIAFLDFALLFYILYLGTKMRHLLIMGMTVLQIVGLIYLEFFLMDHGATVPGFYVDSLSLTMVLIISFVGGLICVYGLGYMKEHEEHLHLPQTKQPRFFFFVVLFLGAMNGLVLSNNLAWMYFFWEITTLCSFMLIGHDGTDEAKTNATRALWMNMVGGVAFVFALLFLQKGMGTLSVQDILARAVEPEMRTTAVLLPMAMLCLAGFTKSAQLPFQSWLCGAMVAPTPVSALLHSSTMVKAGVYLILRMAPGYAGTALSTGVALFGAFTFIVTSALAAGQSNGKKILAYSTIANLGLIVACAGINTAASVAAAMMLIIFHAISKGLLFLCVGAIEQKIGSRNIEDMRNLFERMPRTAVITVIGIVTMMLPPFGMLIAKWMAIESAAGAMSAMPLLVIMIALGSALTVLFWARWAGIMLGSSRPGFGPMQEEQDITIRLPLVSLVGGALVLSLLAPFVYTGLVEPAIAMYAKASAYGVSIGTIGNTMGAFAVYPLYLLLGAGFYYAWRAARNTPDSAASLPYMGGSQMTQDGVVGFNGPMNQFVPNAAGNYYLEKLFGEAQLTKPGNVVAIVLLILMIGGML,failed
12,MLEFTKRSLMNKYNINERVLELYERALNDVEKEFKYYDEIREYNQLKVLKAFQEERISESHFTNSSGYGYNDIGRDSLDRVYANIFNTESAFVRPHFVNGTHAIGAALFGNLRPNDTMMSICGMPYDTLHDIIGMDDSKKVGSLREYGVKYKMVDLKDGKVDINTVKEELKKDDSIKLIHIQRSTGYGWRKSLRIAEIAEIIKSIREVNENVIVFVDNCYGEFVEEKEPTDVGADIIAGSLIKNIGGGIATTGGYIAGKEEYVTQATFRVTVPGIGGECGSTFGVMRSLYEGLFMAPHVTIEAVKGAVFCARIMELAGFDVLPKYNDKRTDIIQAIKFNDEKKLIDFIKGIQTASPVDSFVQCEAWDMPGYEDKVIMAAGTFVQGASIELSADAPIREPYIGYLQGGLTFDHAKLGVLIALSKLIM,not failed
13,MLEHHFRSLKAIDRVRAQWLGPQIERYVQSLDELHTSNATVRQHIRALGHFNDFVIARGVTKLEALPDHVDAFVEYWHAGHAGWCKNNQDRAAVTAQSRVPVERMLCLALPDYTRPNNRPAMPFANTVPGFLPFLNDEKGLRQESQQRYLYTLRPFEAYLNRGGIALSGLEPAHISRFLEERAKTLHKAGMRDTAGALRIFLRYLHREGIVATDLVRSVPRGRIYRQASIPRAIGWQDVERLLTSIDRRSILGKRDYAILTLLASYGLRAREIAALCLDDFDWTHAQISIPMRKGGHSTRYPLSATVGDAVISYLQARRSDVPHRQVFLTARSPYIPMRHWTVSAMVGIRMRDIGIQVTRAGSHTLRHACVQHLVEADMPFKVIGDYVGHSHPSSTLVYGKVAVHKLRQIVLFQGEDVL,failed
14,MLELDGSGAEPLRDGDPRWIGPIPLIGRLGSGGMGRVYLGVHEGRYAAVKQLLPSVVAEDEDFLRRFGHELDNLARLPGEATAPLLAGDREARPPWFATAYVPGLTLTEALEVHGGPLPAGALWLLLREAAKGLAAVHALDMVHRDLKPSNVMLTLEGLTLIDFGVARAAEQSRLTRTGMVVGTPAYMSPEQASGRRASSGAVDVFALGSVLAYAASGRPPFGDESGHAVLYRIVHEEPDLGPLRELDPELADVVASCLDKDHEGRPTAAELLETAERHGPYEPPLWPEALTERLTERAAFVTKLPERADLPEPEPEPERDPGPGPGSAVLGRRDPGRSDHRRRHRVLFAVVPVVVAAGATLAVQLLPYTFAPGDRADASPSSSAPVSSAPAASPAGPGKASRTATPDQDRSASPSRSPGEQGDRRGDADGGGGAAGGSQGDADAGGAGSGSGSGSGSAGDGGAGAGSGAGSGDGSGSDSGSGSGADSGSGAGSGSGSGSGSGSGDGGASGSGVFTLKNAKNGRCLTTAHADAPYDGDCTGDAATWTFRSRPDGTVWIINGLLGRCIYTAAIGHPVFSFPCGRTTGQEWRVGSGGTLKNAATGGCVTVSAMSGTGVRNEACEQSAAQRWTRS,failed
15,MLERILEPEVMDTEAEAMDYDAMDFQAVNLAFAQRACQLGPSKATVLDAGTGTARIPILLAQLRPAWQITAIDFARSMLAIAKENVIAAGCETQICLEFVDAKQLPYANGSFDGVIANSLCHHLPRPLDFLREVKRVLKPHGFLLIRDLIRPESPEKLADFVTAIGSDYNDQQRKLFADSLHASLTIAEIQDYLQHLGWVGDDGPNLELHLYQSSDRHWTLEKKFQSSTIVQR,failed
16,MLESFGEHRWLLWAVASAVLACTEMLSGEFTLLMLAAGAGAGAITAAIVPGMWLLQVIVAAVVAALLLTVLRPTLLRRVREAPGYRSALDKLVGSDGVATSDITDGHGQVKVDGEEWSARALEPGSTIAAGEKIEVYEIDGATLVVYPVFRSLSS,failed
